# Reference: patent publication US20250297004A1, “NECTIN-4 BINDING AGENTS” (INNATE PHARMA, priority 2022, published 2025)
# Positions count from the first letter of the chain named.
# T1: human Nectin-4 (Homo sapiens, UniProt Q96NY8)
# T1 sequence (Q96NY8 32-510): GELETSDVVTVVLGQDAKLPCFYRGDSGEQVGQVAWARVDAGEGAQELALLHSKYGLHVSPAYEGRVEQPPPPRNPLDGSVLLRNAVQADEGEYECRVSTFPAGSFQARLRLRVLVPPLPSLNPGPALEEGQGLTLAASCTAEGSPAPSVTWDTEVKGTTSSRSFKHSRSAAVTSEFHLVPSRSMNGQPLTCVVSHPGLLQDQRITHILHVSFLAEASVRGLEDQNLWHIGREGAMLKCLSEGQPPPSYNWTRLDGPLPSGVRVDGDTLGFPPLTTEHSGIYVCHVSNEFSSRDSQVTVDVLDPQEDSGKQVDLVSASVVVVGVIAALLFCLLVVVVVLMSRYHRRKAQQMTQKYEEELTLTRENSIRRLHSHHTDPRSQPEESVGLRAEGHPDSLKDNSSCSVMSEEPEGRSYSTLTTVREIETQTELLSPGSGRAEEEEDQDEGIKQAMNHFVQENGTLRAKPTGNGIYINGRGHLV
# T2: human Nectin-4 Mutant 7 (human, UniProt Q96NY8 32-510)
# T2 construct: Expressed on transfected HEK293T cells; also called S195A/K197T/S199A
# T2 chain: T1 sequence (Q96NY8 32-510) with S164A, K166T, S168A
# T3: human Nectin-4 Mutant 7bis (human, UniProt Q96NY8 32-510)
# T3 construct: Expressed on transfected HEK293T cells; also called A72P/G73N/K197T/S199A
# T3 chain: T1 sequence (Q96NY8 32-510) with A41P, G42N, K166T, S168A
# T4: human Nectin-4 expressed on cells (human, UniProt Q96NY8 32-510)
# T4 construct: On SUM190, SUM185, MDA-MB-468 cells (endogenous) or transfected cells; 31-residue signal peptide left out; also called huN4; wild-type human Nectin-4
# T4 sequence: T1 sequence (Q96NY8 32-510)
# T5: human Nectin-4 Mutant 1 (human, UniProt Q96NY8 32-510)
# T5 construct: Expressed on transfected HEK293T cells; also called S58P/G59D/Q61A/N106D/P107A
# T5 chain: T1 sequence (Q96NY8 32-510) with S27P, G28D, Q30A, N75D, P76A
# B1: 5E7 (antibody, V domains shown)
# VH: QVQLQQPGAELVKPGASVKLSCKASGYIFTSYWMHWVKQRPGQGLEWIGEIDPSDSYTNYNQKFKGKATLTLDKSSSTTYMQLSSLTSEDSAVYYCVRGYGNYGDYWGQGTTLTVSSASTKGP
# VL: DVVMTQAAFSNPVTLGTSASISCRSSKSLLHSNGITYLYWYLQKPGQSPQLLIYQMSNLASGVPDRFSSSGSGTDFTLRISRVEAEDVGVYYCAQNLELPWTFGGGTKLEIKRTVAAP
# B2: N41 (antibody, V domains shown)
# VH: QVQLKQSGPGLVQPSQSLSITCTVSGFSLTNYGVHWVRQSPGKGLEWLGVIWSGGSTDYNAAFISRLSISKDTSKSQVFFKMNSLQADDTAIYYCARELIHAMDNWGQGTSVTVSS
# VL: DIQMTQSPASLSVSVGETVTITCRASENIYSNLAWYQQKQGNSPQLLVFAATNLADGVPSRFSGSGSGTQYSLKINSLQSEDFGTYYCQHFWGTPTFGGGTKLEIK
# B3: chimeric parental 5E7 antibody (antibody, V domains shown)
# VH: QVQLQQPGAELVKPGASVKLSCKASGYIFTSYWMHWVKQRPGQGLEWIGEIDPSDSYTNYNQKFKGKATLTLDKSSSTTYMQLSSLTSEDSAVYYCVRGYGNYGDYWGQGTTLTVSS
# VL: DVVMTQAAFSNPVTLGTSASISCRSSKSLLHSNGITYLYWYLQKPGQSPQLLIYQMSNLASGVPDRFSSSGSGTDFTLRISRVEAEDVGVYYCAQNLELPWTFGGGTKLEIKR
# notes: Chimeric antibody, murine variable domains with human constant regions; also called ch5E7; CHG1-M-1N4-5E7
# Tests used:
# human Nectin-4 = biological target: T1, human Nectin-4; assay: Binding to human Nectin-4 by SPR; conditions: for ka: SPR association constant; for kd: SPR dissociation constant; for Kd: SPR, human IgG1 isotype antibodies
# Procedure: (§1) The antibodies in Table 3 of Example 3 were cloned as human IgG1 isotype antibodies, produced and purified, then tested for binding to human Nectin-4. Affinity of the 16 humanized variants, as well as their association and dissociation constants were assessed by SPR analysis. Table 4 summarizes all the calculated constants (Affinity constant KD (nM), association constant ka (1/Ms) and dissociation constant kd (1/s)).
# as §1, with “Table 6” for “Table 3”, “Example 5” for “Example 3”, “Table 7” for “Table 4”
# [1] = tested on: rat Nectin-4 protein expressed on CHO cells; assay: Species cross-reactivity by flow cytometry on CHO cell lines; type: binding; conditions: FIG. 6A
# Procedure: Anti-Nectin-4 antibodies were tested by flow cytometry for binding to different CHO cell lines made to express respectively the mouse, cynomolgus and rat Nectin-4 protein (including an N-terminal V5 tag not shown in the sequences below).
# The mature amino acid sequence of the proteins expressed by the cells were as follows: […]
# human Nectin-4 Mutant 7 = biological target: T2, human Nectin-4 Mutant 7; assay: binding to HEK293T cells expressing Nectin-4 mutant
# [2] = biological target: T3, human Nectin-4 Mutant 7bis; assay: as above
# [3] = biological target: T4, human Nectin-4 expressed on cells; assay: flow cytometry on SUM190 cells, MedFI at saturation
# Procedure: The humanized antibodies in Table 3 of Example 3 and in Table 6 of Example 5 were cloned, produced and purified, then tested for binding to Nectin-4 expressing cells by flow cytometry. Binding of humanized variants in human IgG1 format was determined on the SUM190 cell line expressing high levels of Nectin-4.
# human Nectin-4 Mutant 1 = biological target: T5, human Nectin-4 Mutant 1; assay: binding to HEK293T cells expressing Nectin-4 mutant
# Chain of rat Nectin-4 protein expressed on CHO cells (as listed by the source): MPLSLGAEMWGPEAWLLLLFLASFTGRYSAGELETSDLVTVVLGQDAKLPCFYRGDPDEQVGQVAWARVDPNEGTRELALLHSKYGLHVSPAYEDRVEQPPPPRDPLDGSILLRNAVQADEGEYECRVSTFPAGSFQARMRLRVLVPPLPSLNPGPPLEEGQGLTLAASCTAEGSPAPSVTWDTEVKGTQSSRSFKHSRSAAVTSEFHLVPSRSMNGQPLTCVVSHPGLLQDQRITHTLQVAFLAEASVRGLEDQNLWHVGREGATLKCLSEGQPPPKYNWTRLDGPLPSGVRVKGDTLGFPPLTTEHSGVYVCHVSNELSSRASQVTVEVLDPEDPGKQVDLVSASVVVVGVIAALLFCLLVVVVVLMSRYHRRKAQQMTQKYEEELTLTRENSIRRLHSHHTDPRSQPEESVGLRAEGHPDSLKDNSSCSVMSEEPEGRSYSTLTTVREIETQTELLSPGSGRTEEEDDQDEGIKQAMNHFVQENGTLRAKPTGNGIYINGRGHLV
molecule,measurement,setting,value
B1,ka,human Nectin-4; first set (Table 4),480000 ± 1e-05 M⁻¹ s⁻¹
same,ka,human Nectin-4; second set (Table 7),480000 ± 1e-05 M⁻¹ s⁻¹
same,kd,human Nectin-4; first set (Table 4),0.0027 ± 0.0003 s⁻¹
same,kd,human Nectin-4; second set (Table 7),0.0027 ± 0.0003 s⁻¹
same,Kd,human Nectin-4; first set (Table 4),5.9 ± 1.2 nM
same,Kd,human Nectin-4; second set (Table 7),5.9 nM
same,binding to rat Nectin 4 protein,[1],bound
B2,binding result,human Nectin-4 Mutant 7,binds
same,binding result,[2],binds
B3,Max MedFi,[3],25200 MedFI
same,binding result,human Nectin-4 Mutant 1,binds
